Results on six substances are retold here after US20140011196.

What all share (assay): cleavage_in_vitro
Data set [1] has as its system T1, HpyF30I restriction endonuclease (Helicobacter pylori RFL30).
T1 sequence: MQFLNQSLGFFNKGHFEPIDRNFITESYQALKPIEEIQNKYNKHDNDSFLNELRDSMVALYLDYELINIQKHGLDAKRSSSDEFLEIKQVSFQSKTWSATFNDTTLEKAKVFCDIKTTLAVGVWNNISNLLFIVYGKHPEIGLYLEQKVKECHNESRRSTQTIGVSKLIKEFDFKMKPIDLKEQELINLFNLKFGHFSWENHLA

For data set [2], the target named is T2, TaqI restriction endonuclease (Thermus aquaticus) (UniProt P14386).
T2 sequence: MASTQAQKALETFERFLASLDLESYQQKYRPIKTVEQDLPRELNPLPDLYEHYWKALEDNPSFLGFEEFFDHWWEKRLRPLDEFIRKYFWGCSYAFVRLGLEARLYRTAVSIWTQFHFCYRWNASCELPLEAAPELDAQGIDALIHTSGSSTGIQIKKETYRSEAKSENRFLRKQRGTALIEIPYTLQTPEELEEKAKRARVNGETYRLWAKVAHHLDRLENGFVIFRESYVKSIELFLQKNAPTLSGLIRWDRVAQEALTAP
The conditions noted are these: 65 C.

Data set [3] relates to PaeR7I restriction endonuclease.
[4] abbreviates: about 50% 5mC at the TCGA site, partial, site about 50% methylated.

On to 130 bp lambda PCR fragment C, for which the activity in data set [1] (with Jurkat genomic DNA, SdaI buffer, 37 C) worked out at 7 % undigested; in data set [2] (with Jurkat genomic DNA), 0.7 % undigested.

With lambda DNA (dam-) M.SssI methylated, the activity was 100 % undigested in data set [1] (5mC at CpG, both strands, SdaI buffer, 37 C, qPCR) and 0.2 % undigested in data set [2] (5mC at CpG, both strands, TaqI buffer, qPCR).

In the case of lambda DNA (dam-), the activity in data set [1] (SdaI buffer, 15 mM Mg acetate, 37 C, qPCR) turned out to be 0.6 % undigested; in data set [2] (TaqI buffer, qPCR), 0.06 % undigested.

As to RASSFA1 promoter region, the activity in data set [1] (setting [4]) worked out at 50 % undigested; in data set [3] (setting [4]) it was 50 % undigested; in data set [2] (about 50% 5mC at the TCGA site, qPCR), 0.8 % undigested.

For 130 bp lambda PCR fragment m5C, the activity in data set [1] (5mC in both strands, with Jurkat genomic DNA, SdaI buffer, 37 C) stood at 100 % undigested; in data set [2] (5mC in both strands, with Jurkat genomic DNA) it was 0.7 % undigested.

Consider DAPK1 promoter region, for which the activity was found to be 2 % undigested in data set [1] (SdaI buffer, 37 C, qPCR); 0.8 % undigested in data set [3] (buffer 4, 37 C, qPCR); 0.7 % undigested in data set [2] (qPCR).
